“And” between values parts separate entries of the source, which are not always exact repeats. Equal entries are not always repeated.
How the values were obtained:
[1] = tested on: tobacco (Nicotiana tabacum v. Xanthi) leaves; assay: Induction of HR in tobacco by hrpN truncated proteins; assay type: in vivo; settings: for HR titer: large scale purified protein, concentration down to which HR is elicited in tobacco, — = no HR; for HR elicitation in tobacco (in words): Example 12
Method: A 1.5 ml aliquot from the 50 ml cultures grown for small scale purification of the truncated proteins was centrifuged at 14,000 rpm for four minutes and re-suspended in an equal volume of 5 mM potassium phosphate buffer, pH 6.8. The cell suspension was sonicated for ca. 30 seconds then diluted 1:2 and 1:10 with phosphate buffer. Both dilutions plus the neat cell lysate were infiltrated into the fourth to ninth leaves of 10-15 leaf tobacco plants by making a hole in single leaf panes and infiltrating the bacterial lysate into the intercellular leaf space using a syringe without a needle. The HR response was recorded 24-48 hr post infiltration. Tobacco (Nicotiana tabacum v. Xanthi) seedlings were grown in an environmental chamber at 20-25° C. with a photoperiod of 12-h light/12-h dark and ca. 40% RH. Cell lysate was used for the initial HR assays (in order to screen the truncated proteins for HR activity) as the small scale urea purification yielded very little protein which was denatured due to the purification process.
The full length positive control protein elicited HR down to only 5-7 μg/ml. […] This false HR was likely due to an affinity of the imidazole used in the purification process to bind to one or several of the background proteins, thereby not completely dialyzing out.

TMV = assay: Induction of systemic acquired resistance (SAR), TMV lesions on tobacco; assay type: in vivo, Nicotiana tabacum; settings: tobacco sprayed with 20 μg/ml, reduction in TMV lesions vs buffer control
Method: Three tobacco (Nicotiana tabacum cv. Xanthi) plants with 8-12 leaves (ca. 75 day old plants) were used in the assay. One leaf of the tobacco plants was covered up and the rest of the leaves were sprayed with ca. 50 ml of a 20 μg/ml solution of the truncated proteins diluted with 5 mM potassium phosphate buffer. Five to seven days later two leaves (the unsprayed leaf and the sprayed leaf opposite and just above the unsprayed leaf) were inoculated with 20 μl of a 1.8 μg/ml solution of TMV along with a pinch of diatomaceous earth by rubbing the mixture along the top surface of the leaves. The TMV entered the plants through tiny lesions made by the diatomaceous earth. Ca. 3-4 days post TMV inolucation, the number of TMV lesions was counted on both leaves compared with the number of lesions on the negative control buffer treated leaves. Analyses were done to determine the efficacy of reducing the number of TWV lesions by the protein fragents compared to the buffer control. Percentage of efficacy was calculated as: Reduction in TMV lesions (% efficacy)=100×(1−mean # of lesions on treated leaves/mean # of lesions on buffer control leaves).

[2] = tested on: tomato (Lycopersicon spp. cv. Marglobe); assay: Induction of growth enhancement (GE/PGE), tomato seed soak; assay type: in vivo; settings: for PGE ht>buffer @20 μg/ml: tomato seeds soaked overnight at 20 μg/ml; for PGE ht>buffer @20 μg/ml / PGE ht>buffer @10 μg/ml / PGE ht>buffer @ 40 μg/ml: height vs buffer control; for PGE ht>buffer @20 μg/ml / PGE ht>buffer @10 μg/ml: >10% needed to pass; for PGE ht>buffer @10 μg/ml: tomato seeds soaked overnight at 10 μg/ml
Method: Sixty tomato (Lycopersicon spp. cv. […] The next morning, the sixty seeds were sewn in three pots and 12-15 days later and again 18-20 days later the heights of the 10 tallest tomato plants per pot were measured and compared with the heights of the control plants treated only with phosphate buffer. Analyses were done on the heights to determine if there was a significant difference in the height of the plants treated with the truncated proteins compared with the buffer control, and thereby determine whether the proteins induced growth enhancement.

For `c1c[nH]cn1` [Imidazole], the “false HR response” value ([1]; imidazole at ca. 60 mM) was “did elicit a false HR response”.

In the case of “Fragment 20: amino acids 137-180 of SEQ ID NO: 23, smallest HR domain (STSQNDDSTSGTDSTSDSSDPMQQLLKMFSEIMQSLFGDGQDGT; listed as Erwinia amylovora)”, the “Efficacy of TMV control” value (TMV; listed as 20) is reported as 64% and 58%, the HR titer [1] is reported as 16 µg/mL and the “PGE ht>buffer @20 μg/ml” value [2] is reported as 9%.

B1: Fragment 13: amino acids 76-209 of SEQ ID NO: 23, internal fragment (protein, listed as Erwinia amylovora)
chain: MGGGLGGGLGNGLGGSGGLGEGLSNALNDMLGGSLNTLGSKGGNNTTSTTNSPLDQALGINSTSQNDDSTSGTDSTSDSSDPMQQLLKMFSEIMQSLFGDGQDGTQGSSSGGKQPTEGEQNAYKKGVTDALSGL
B1 was tested, and the “Efficacy of TMV control” value (TMV; listed as 13) was 44% and 84%, the HR titer [1] was 5 µg/mL and the “PGE ht>buffer @ μg/ml” value ([2]; concentration figure missing in the cell) was 18% @ μg/ml. The “PGE ht>buffer @10 μg/ml” value [2] was 7%, the “PGE ht>buffer @20 μg/ml” value [2] was 4% and the “enhanced growth at 60 μg/ml” value ([2]; tomato, 60 μg/ml) was 18%.

B2: Fragment 17: amino acids 105-168 of SEQ ID NO: 23, internal fragment (protein, listed as Erwinia amylovora)
chain: MLGGSLNTLGSKGGNNTTSTTNSPLDQALGINSTSQNDDSTSGTDSTSDSSDPMQQLLKMFSEI
With B2 the “Efficacy of TMV control” value (TMV) was 89%, the “HR elicitation in tobacco (in words)” value [1] was “lost its HR activity” and the “PGE ht>buffer @10 μg/ml” value [2] was 19%. For the same molecule, the “PGE ht>buffer @20 μg/ml” value [2] was 16%.

B3: Fragment 4: amino acids 169-403 of SEQ ID NO: 23, C-terminal fragment (protein, listed as Erwinia amylovora)
chain: MQSLFGDGQDGTQGSSSGGKQPTEGEQNAYKKGVTDALSGLMGNGLSQLLGNGGLGGGQGGNAGTGLDGSSLGGKGLQNLSGPVDYQQLGNAVGTGIGMKAGIQALNDIGTHRHSSTRSFVNKGDRAMAKEIGQFMDQYPEVFGKPQYQKGPGQEVKTDDKSWAKALSKPDDDGMTPASMEQFNKAKGMIKRPMAGDTGNGNLQARGAGGSSLGIDAMMAGDAINNMALGKLGAA
For B3, the “Efficacy of TMV control” value (TMV; listed as 4) was 64% and 79%, the “HR elicitation in tobacco (in words)” value [1] was “did not elicit HR” and the “PGE ht>buffer @10 μg/ml” value [2] was 9%. For the same molecule, the “PGE ht>buffer @20 μg/ml” value [2] was 12%.

B4: Fragment 9: amino acids 1-104 of SEQ ID NO: 23, N-terminal fragment (protein, listed as Erwinia amylovora)
chain: MSLNTSGLGASTMQISIGGAGGNNGLLGTSRQNAGLGGNSALGLGGGNQNDTVNQLAGLLTGMMMMMSMMGGGGLMGGGLGGGLGNGLGGSGGLGEGLSNALND
With B4 the “Efficacy of TMV control” value (TMV) was 82%, the HR titer [1] was 3 µg/mL and the “PGE ht>buffer @10 μg/ml” value [2] was 4%. The “PGE ht>buffer @20 μg/ml” value [2] was 8%.

B5: Fragment 6: amino acids 267-403 of SEQ ID NO: 23, C-terminal fragment (protein, listed as Erwinia amylovora)
chain: MKAGIQALNDIGTHRHSSTRSFVNKGDRAMAKEIGQFMDQYPEVFGKPQYQKGPGQEVKTDDKSWAKALSKPDDDGMTPASMEQFNKAKGMIKRPMAGDTGNGNLQARGAGGSSLGIDAMMAGDAINNMALGKLGAA
B5 was tested, and the “Efficacy of TMV control” value (TMV; listed as 6) was 70% and 72%, the “PGE ht>buffer @ 40 μg/ml” value [2] was 23% @ 40 μg/ml and the “PGE ht>buffer @10 μg/ml” value [2] was 21%. The “PGE ht>buffer @20 μg/ml” value [2] was 21%.

B6: Fragment 10: amino acids 1-168 of SEQ ID NO: 23, N-terminal fragment (protein, listed as Erwinia amylovora)
chain: MSLNTSGLGASTMQISIGGAGGNNGLLGTSRQNAGLGGNSALGLGGGNQNDTVNQLAGLLTGMMMMMSMMGGGGLMGGGLGGGLGNGLGGSGGLGEGLSNALNDMLGGSLNTLGSKGGNNTTSTTNSPLDQALGINSTSQNDDSTSGTDSTSDSSDPMQQLLKMFSEI
In the case of B6, the “Efficacy of TMV control” value (TMV) is reported as 69%, the HR titer [1] is reported as 1 µg/mL and the “PGE ht>buffer @10 μg/ml” value [2] is reported as 13%. For the same molecule, the “PGE ht>buffer @20 μg/ml” value [2] was 5%.

B7: Fragment 15: amino acids 105-209 of SEQ ID NO: 23, internal fragment (protein, listed as Erwinia amylovora)
chain: MLGGSLNTLGSKGGNNTTSTTNSPLDQALGINSTSQNDDSTSGTDSTSDSSDPMQQLLKMFSEIMQSLFGDGQDGTQGSSSGGKQPTEGEQNAYKKGVTDALSGL
In the case of B7, the “Efficacy of TMV control” value (TMV; listed as 15) is reported as 57% and 67%, the HR titer [1] is reported as 5 to 10 µg/mL and the “PGE ht>buffer @10 μg/ml” value [2] is reported as 14%. The “PGE ht>buffer @20 μg/ml” value [2] was 19%.

B8: Fragment 7: amino acids 343-403 of SEQ ID NO: 23, smallest C-terminal protein (protein, listed as Erwinia amylovora)
chain: MTPASMEQFNKAKGMIKRPMAGDTGNGNLQARGAGGSSLGIDAMMAGDAINNMALGKLGAA
In the case of B8, the “PGE ht>buffer @10 μg/ml” value [2] is reported as 7% and the “PGE ht>buffer @20 μg/ml” value [2] is reported as 7%.

B9: Fragment 5: amino acids 210-403 of SEQ ID NO: 23, C-terminal fragment (protein, listed as Erwinia amylovora)
chain: MGNGLSQLLGNGGLGGGQGGNAGTGLDGSSLGGKGLQNLSGPVDYQQLGNAVGTGIGMKAGIQALNDIGTHRHSSTRSFVNKGDRAMAKEIGQFMDQYPEVFGKPQYQKGPGQEVKTDDKSWAKALSKPDDDGMTPASMEQFNKAKGMIKRPMAGDTGNGNLQARGAGGSSLGIDAMMAGDAINNMALGKLGAA
In the case of B9, the “Efficacy of TMV control” value (TMV; listed as 5) is reported as 77% and 78%, the “HR elicitation in tobacco (in words)” value [1] is reported as “did not elicit HR at a detectable level” and the “PGE ht>buffer @ 40 μg/ml” value [2] is reported as 16% @ 40 μg/ml. The “PGE ht>buffer @10 μg/ml” value [2] was 13% and the “PGE ht>buffer @20 μg/ml” value [2] was 14%.

B10: Fragment 1: full length Erwinia amylovora hypersensitive response elicitor, amino acids 1-403 of SEQ ID NO: 23, pET28(b) clone, positive control (protein, listed as Erwinia amylovora)
chain: MSLNTSGLGASTMQISIGGAGGNNGLLGTSRQNAGLGGNSALGLGGGNQNDTVNQLAGLLTGMMMMMSMMGGGGLMGGGLGGGLGNGLGGSGGLGEGLSNALNDMLGGSLNTLGSKGGNNTTSTTNSPLDQALGINSTSQNDDSTSGTDSTSDSSDPMQQLLKMFSEIMQSLFGDGQDGTQGSSSGGKQPTEGEQNAYKKGVTDALSGLMGNGLSQLLGNGGLGGGQGGNAGTGLDGSSLGGKGLQNLSGPVDYQQLGNAVGTGIGMKAGIQALNDIGTHRHSSTRSFVNKGDRAMAKEIGQFMDQYPEVFGKPQYQKGPGQEVKTDDKSWAKALSKPDDDGMTPASMEQFNKAKGMIKRPMAGDTGNGNLQARGAGGSSLGIDAMMAGDAINNMALGKLGAA
For B10, the “Efficacy of TMV control” value (TMV; listed as 1 (+control)) was 84% and 72%, the HR titer [1] was 5 to 7 µg/mL and the “PGE ht>buffer @10 μg/ml” value [2] was 12%. The “PGE ht>buffer @20 μg/ml” value [2] was 11%.

B11: Fragment 19: amino acids 137-204 of SEQ ID NO: 23, internal fragment (protein, listed as Erwinia amylovora)
chain: STSQNDDSTSGTDSTSDSSDPMQQLLKMFSEIMQSLFGDGQDGTQGSSSGGKQPTEGEQNAYKKGVTD
For B11, the “Efficacy of TMV control” value (TMV; listed as 19) was 89% and 77%, the HR titer [1] was 3.5 µg/mL and the “PGE ht>buffer @10 μg/ml” value [2] was 11%. The “PGE ht>buffer @20 μg/ml” value [2] was 13%.

B12: Fragment 14: amino acids 76-168 of SEQ ID NO: 23, internal fragment (protein, listed as Erwinia amylovora)
chain: MGGGLGGGLGNGLGGSGGLGEGLSNALNDMLGGSLNTLGSKGGNNTTSTTNSPLDQALGINSTSQNDDSTSGTDSTSDSSDPMQQLLKMFSEI
In the case of B12, the “Efficacy of TMV control” value (TMV; listed as 14) is reported as 83% and 87%, the “HR elicitation in tobacco (in words)” value [1] is reported as “lost its HR activity” and the “PGE ht>buffer @10 μg/ml” value [2] is reported as 18%. The “PGE ht>buffer @20 μg/ml” value [2] was 20%.

Reference: US6858707B1, “Hypersensitive response elicitor fragments which are active but do not elicit a hypersensitive response” (EDEN Bioscience Corporation, priority 1998, dated 2005)
